Key:
[1] = biological target: T1, human CD16A (158F) expressed on CHO cells (cAg_34) (human, UniProt P08637 17-254); test: flow cytometry on huCD16A (158F) CHO cells (cAg_34), one-site fit of MFI, Exp. 3
T1 construct: also called huCD16A-transfected CHO cells
Method: (§1) After washing in FACS buffer, cells were incubated in 50 μL FACS buffer without antibodies or with titrated antibodies starting at a concentration of 1000 nM followed by elven 3-fold serial dilutions for 40-50 min on ice in the dark. […] After washing, binding was measured by flow cytometry and mean fluorescence intensities (MFI) of cell samples were calculated and corrected for background staining using control cells stained with secondary antibodies only.
(§2) Equilibrium dissociation constants (KD) of antibody binding were calculated by plotting MFI values and fitting a non-linear regression model for one-site binding to hyperbolic dose-response curves using GraphPad Prism.

[2] = biological target: T2, cynomolgus FOLR1 expressed on CHO cells (cAg_126) (cynomolgus, UniProt A0A2K5U044 25-234); test: flow cytometry on cyFOLR1 CHO cells (cAg_126), one-site fit of MFI, Exp. 1
T2 construct: whole, on cells; also called cyFOLR1
Method: (§3) To analyze binding of different antibody constructs to CHO cells transfected with human FOLR1 (cAg_125) and cynomolgus FOLR1 (cAg_126), 1-5×10⁵ were resuspended in 100 μL FACS buffer (PBS (BioWest, cat.: L0615-500) containing 2% heat-inactivated FCS (Invitrogen, cat.: 10500-064), and 0.1% sodium azide (Sigma, cat.: S8032_100G)) in round-bottom 96-well microtiter plates. After washing in FACS buffer, cells were incubated in 50 μL FACS buffer without antibodies or with titrated antibodies starting at a concentration of 1000 nM followed by eleven 3-fold serial dilutions for 40-50 min on ice in the dark. […] After washing, binding was measured by flow cytometry and mean fluorescence intensities (MFI) of cell samples were calculated and corrected for background staining using control cells stained with secondary antibodies only.
as §2, with “Binding of antibody constructs to huFOLR1-as well as cyFOLR1-transfected CHO cells was measured by flow cytometry. Equilibrium” for “Equilibrium”

[3] = biological target: T3, CD16A endogenously expressed on primary human NK cells (human, UniProt P08637 17-254); test: flow cytometry on primary human NK cells, biotinylated antibody, 37 C, with 10 mg/mL polyclonal human IgG as competitor, mean of 4
Method: (§4) 4° C., and resuspended in 50 μL/well of diluted antibody constructs. […] After 40-50 minutes' incubation at 37° C., cells were washed 3-times with ice-cold FACS buffer. […] After the final incubation step, cells were washed 2-times with ice-cold FACS buffer, and the cell pellet was resuspended in 50 μL FACS buffer. Fluorescence intensity of >1×10⁴ viable cells was analyzed by flow cytometry and the median fluorescence intensity (MFI) was determined for each sample.
as §2

[4] = biological target: T2, cynomolgus FOLR1 expressed on CHO cells …; test: flow cytometry on cyFOLR1-transfected CHO cells (cAg_126), on ice, FITC goat anti-human IgG detection
Method: as §3

[5] = biological target: T4, human FOLR1 endogenously expressed on tumor cell lines (human, UniProt P15328 25-234); test: cell-based or functional assay
[6] = biological target: T5, human FOLR1 expressed on CHO cells (cAg_125) (human, UniProt P15328 25-234); test: flow cytometry on huFOLR1 CHO cells (cAg_125), one-site fit of MFI, Exp. 2
T5 construct: whole, on cells; also called huFOLR1
Method: as §3
as §2, with “Binding of antibody constructs to huFOLR1-as well as cyFOLR1-transfected CHO cells was measured by flow cytometry. Equilibrium” for “Equilibrium”

[7] = biological target: T1, human CD16A (158F) expressed on CHO …; test: flow cytometry on huCD16A (158F) CHO cells (cAg_34), one-site fit of MFI, Exp. 2
Method: as §1, §2

[8] = biological target: T4, human FOLR1 endogenously expressed on …; test: flow cytometry on OVCAR-3 cells (FOLR1 medium) at 37 °C, FITC anti-human IgG detection
Method: Cells were collected and centrifuged at 400×g, 5 min, 4° C. Cell pellets were resuspended in FACS buffer (PBS (Invitrogen, cat.: 392-0434) containing 2% h.i. FCS (Invitrogen, cat.: 10500-064), and 0.1% sodium azide (Sigma, cat.: S8032)) at 1-5×10⁶ cells/mL. 100 μL/well of the cell suspension were transferred into U-shaped, 96-well micro plates (0.1-0.5×10⁶ cells per well), cells were pelleted at 400×g, 5 min, 4° C., and resuspended in 100 μL/well of serial dilutions of the indicated antibodies in FACS buffer. After 40-50 min incubation at 37° C., cells were washed 3-times with ice-cold FACS buffer. […] After the final incubation step, cells were washed 2-times with ice-cold FACS buffer, and the cell pellet was resuspended in 100 μL FACS buffer. Fluorescence intensities of >1×10⁴ viable cells were analyzed by flow cytometry and the median fluorescence intensity (MFI) was determined for each sample.

[9] = biological target: T1, human CD16A (158F) expressed on CHO …; test: flow cytometry on huCD16A (158F) CHO cells (cAg_34), one-site fit of MFI, Exp. 1
Method: as §1, §2

[10] = biological target: T3, CD16A endogenously expressed on primary …; test: flow cytometry on primary human NK cells, biotinylated antibody, 37 C, without IgG, mean of 4
Method: as §4, §2

[11] = biological target: T3, CD16A endogenously expressed on primary …; test: flow cytometry on primary human NK cells, without IgG, range of 4 experiments
Method: as §4, §2

[12] = biological target: T1, human CD16A (158F) expressed on CHO …; test: flow cytometry on huCD16A (158F) CHO cells (cAg_34), one-site fit of MFI, mean
Method: as §1, §2

[13] = biological target: T5, human FOLR1 expressed on CHO cells …; test: flow cytometry on huFOLR1 CHO cells (cAg_125), one-site fit of MFI, Exp. 3
Method: as §3
as §2, with “Binding of antibody constructs to huFOLR1-as well as cyFOLR1-transfected CHO cells was measured by flow cytometry. Equilibrium” for “Equilibrium”

T2 sequence (A0A2K5U044 entry or part of it): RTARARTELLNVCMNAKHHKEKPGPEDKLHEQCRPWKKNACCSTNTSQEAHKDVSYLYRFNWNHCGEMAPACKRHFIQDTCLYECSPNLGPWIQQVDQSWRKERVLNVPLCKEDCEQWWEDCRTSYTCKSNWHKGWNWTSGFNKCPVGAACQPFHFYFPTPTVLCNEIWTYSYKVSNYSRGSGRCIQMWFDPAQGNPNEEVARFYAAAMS
T5 sequence (P15328 25-234): as the sequence (A0A2K5U044 entry or part of it) above, with T2I, R4W, K37R, P146A, Y171H counted along it
T4 sequence (P15328 25-234): as the sequence (A0A2K5U044 entry or part of it) above, with T2I, R4W, K37R, P146A, Y171H counted along it
T3 sequence (P08637 17-254 limits assumed): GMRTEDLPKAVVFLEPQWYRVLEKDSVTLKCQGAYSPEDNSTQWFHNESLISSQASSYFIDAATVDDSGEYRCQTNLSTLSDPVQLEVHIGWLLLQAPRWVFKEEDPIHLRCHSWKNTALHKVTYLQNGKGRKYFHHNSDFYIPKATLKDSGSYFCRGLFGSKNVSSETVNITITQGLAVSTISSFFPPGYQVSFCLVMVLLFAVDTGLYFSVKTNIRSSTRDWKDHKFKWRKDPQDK
T1 sequence (P08637 17-254 limits assumed): as above

B1: scFv-IgAb_387 (FOLR1_1×CD16a3) (bispecific antibody)
heavy: EVQLVESGGGVVQPGRSLRLSCSASGFTFSGYGLSWVRQAPGKGLEWVAMISSGGSYTYYADSVKGRFAISRDNAKNTLFLQMDSLRPEDTGVYFCARHGDDPAWFAYWGQGTPVTVSSASTKGPSVFPLAPSSKSTSGGTAALGCLVKDYFPEPVTVSWNSGALTSGVHTFPAVLQSSGLYSLSSVVTVPSSSLGTQTYICNVNHKPSNTKVDKKVEPKSCDKTHTCPPCPAPEFEGGPSVFLFPPKPKDTLMISRTPEVTCVVVAVSHEDPEVKFNWYVDGVEVHNAKTKPREEQYNSTYRVVSVLTVLHQDWLNGKEYKCKVSNKALPAPIEKTISKAKGQPREPQVYTLPPSREEMTKNQVSLTCLVKGFYPSDIAVEWESNGQPENNYKTTPPVLDSDGSFFLYSKLTVDKSRWQQGNVFSCSVMHEALHNHYTQKSLSLSPGGGGGSGGGGSGGGGSGGGGSGGGGSGGGGSSYELTQPLSVSVALGQTARITCGGNNIGSKSVHWYQQKPGQAPVLVIYQDKKRPSGIPERFSGSNSGNTATLTISRAQAGDEADYYCQVWDDYIVLFGCGTKLTVLGGSGGSGGSGGSGGSGGSGGSQVQLVQSGAEVKKPGASVKVSCKASGYTFTNYYMQWVRQAPGQCLEWMGIINPSGGVTSYAQKFQGRVTMTRDTSTSTVYMELSSLRSEDTAVYYCARGSAYYYDFADYWGQGTLVTVSSG
light: DIQLTQSPSSLSASVGDRVTITCSVSSSISSNNLHWYQQKPGKAPKPWIYGTSNLASGVPSRFSGSGSGTDYTFTISSLQPEDIATYYCQQWSSYPYMYTFGQGTKVEIKRTVAAPSVFIFPPSDEQLKSGTASVVCLLNNFYPREAKVQWKVDNALQSGNSQESVTEQDSKDSTYSLSSTLTLSKADYEKHKVYACEVTHQGLSSPVTKSFNRGEC
modifications: Chemically biotinylated (NHS-PEG4-biotin) in Example 22 only.
notes: Tetravalent bispecific scFv-IgAb; also called FOLR1×CD16A scFv-IgAb_387; FOLR1/CD16A scFv-IgAb_387; copies: 2 + 2
Q: B1 was tested. Which Kd [1] did it give?
A: 19.9 nM

Q: What about the Kd [2] of the same binder?
A: 14.9 nM

Q: What about the Kd [3] of the same binder?
A: 23.1 nM

Q: And the “EC50 (read off the curve)” value [4]?
A: ~20 nM

Q: And the “EC50 [nM] of ADCP, DK-MG cells” value [5]?
A: 0.1 nM

Q: And the “EC50 [nM] of ADCP, HCC-78 cells” value [5]?
A: 17.8 nM

Q: What about the “EC50 [nM] of ADCP, HeLa cells” value [5] of the same binder?
A: 0.16 nM

Q: What about the “Phagocytosis [%], 4 h ADCP, DK-MG cells” value [5] of the same binder?
A: 17.6%

Q: What about the “Phagocytosis [%], 4 h ADCP, HCC-78 cells” value [5] of the same binder?
A: 26%

Q: What about the Kd [6] of the same binder?
A: 31.6 nM

Q: What about the Kd [7] of the same binder?
A: 28.5 nM

Q: And the “EC50 (read off the curve)” value [8]?
A: ~2 nM

Q: And the Kd [9]?
A: 16 nM

Q: What about the Kd [10] of the same binder?
A: 4.3 nM

Q: And the Kd [11]?
A: 3.7 to 5.4 nM

Q: And the Kd [12]?
A: 21.5 nM

Q: What about the Kd [13] of the same binder?
A: 40.6 nM

B2: scFv-IgAb_381 (FOLR1_1×CD16a4) (bispecific antibody)
chain 1: EVQLVESGGGVVQPGRSLRLSCSASGFTFSGYGLSWVRQAPGKGLEWVAMISSGGSYTYYADSVKGRFAISRDNAKNTLFLQMDSLRPEDTGVYFCARHGDDPAWFAYWGQGTPVTVSSASTKGPSVFPLAPSSKSTSGGTAALGCLVKDYFPEPVTVSWNSGALTSGVHTFPAVLQSSGLYSLSSVVTVPSSSLGTQTYICNVNHKPSNTKVDKKVEPKSCDKTHTCPPCPAPEFEGGPSVFLFPPKPKDTLMISRTPEVTCVVVAVSHEDPEVKFNWYVDGVEVHNAKTKPREEQYNSTYRVVSVLTVLHQDWLNGKEYKCKVSNKALPAPIEKTISKAKGQPREPQVYTLPPSREEMTKNQVSLTCLVKGFYPSDIAVEWESNGQPENNYKTTPPVLDSDGSFFLYSKLTVDKSRWQQGNVFSCSVMHEALHNHYTQKSLSLSPGGGGGSGGGGSGGGGSGGGGSGGGGSGGGGSSYELTQPLSVSVALGQTARITCGGHNIGSKNVHWYQQKPGQAPVLVIYQDNKRPSGIPERFSGSNSGNTATLTISRAQAGDEADYYCQVWDNYNVLFGCGTKLTVLGGSGGSGGSGGSGGSGGSGGSQVQLVQSGAEVKKPGASVKVSCKASGYTFTSYYMHWVRQAPGQCLEWMGAIEPTYGSTSYAQKFQGRVTMTRDTSTSTVYMELSSLRSEDTAVYYCARGSAYYYDFADYWGQGTLVTVS
chain 2: B1 light
notes: also called FOLR1×CD16A scFv-IgAb_381
Q: Which results are given for B2?
A: Kd [1]: 27.1 nM; Kd [2]: 11.5 nM; EC50 (read off the curve) [4]: ~10 nM; Kd [6]: 24.4 nM; Kd [7]: 29.3 nM; Kd [9]: 22.1 nM; Kd [12]: 26.2 nM; Kd [13]: 29.3 nM

Source: US20240417475A1 (AFFIMED, published 2024)
